Data on 150 variants can be found in article PMC11969024 (2025).

B1: peptide HD2 (from tick evasin EVA4) / CCL18 (biotinylated, synthetic) (parent complex)
chain 1: EEDDYTAYAPLTCYFT
chain 2: AQVGTNKELCCLVYTSWQIPQKFIVDYSETSPQCPKPGVILLTKRGRQICADPNKKWVQKYISDLKLNA
B2: peptide HD2 (from tick evasin EVA4) / CCL8 (biotinylated, synthetic) (parent complex)
chain 1: EEDDYTAYAPLTCYFT
chain 2: QPDSVSIPITCCFNVINRKIPIQRLESYTRITNIQCPKEAVIFKTKRGKEVCADPKERWVRDSMKHLDQIFQNLKP

The first experiment covers variants of B1.
As to chain 1 F15Y, the enrichment was 1.67 log2 (difference from the parental peptide). Same read-out and setting: next, chain 1 Y5G: -3.5 log2 (difference from the parental peptide); chain 1 Y5C: -5.9 log2 (difference from the parental peptide). Same read-out and setting: next, chain 1 Y5S: -3.37 log2 (difference from the parental peptide); chain 1 D4L: -2.06 log2 (difference from the parental peptide). The same measure, in the same setting: the same measure for chain 1 D4T: -3.75 log2 (difference from the parental peptide).

Turning to chain 1 D4M, the enrichment is -1.48 log2 (difference from the parental peptide).

As to chain 1 Y14R, the enrichment was -6.83 log2 (difference from the parental peptide). On the same count and under the same terms, next, chain 1 Y14L: -2.62 log2 (difference from the parental peptide); chain 1 T16I: -0.207 log2 (difference from the parental peptide); chain 1 Y8A: 0.303 log2 (difference from the parental peptide). Same read-out and setting: next, chain 1 Y8M: -6.37 log2 (difference from the parental peptide); chain 1 C13Y: -5.14 log2 (difference from the parental peptide); chain 1 E2C: -10.2 log2 (difference from the parental peptide). The same measure, in the same setting: the same measure for chain 1 T6Q: 1.41 log2 (difference from the parental peptide); for chain 1 T12G: -8.91 log2 (difference from the parental peptide). For chain 1 T12Q, the enrichment is -0.825 log2 (difference from the parental peptide). On the same count and under the same terms, the same measure for chain 1 E1T: -0.938 log2 (difference from the parental peptide); for chain 1 E1V: -1.49 log2 (difference from the parental peptide). On the same count and under the same terms, the same measure for chain 1 D3P: 0.322 log2 (difference from the parental peptide); for chain 1 D3Y: -1.47 log2 (difference from the parental peptide). As for chain 1 D3H, the enrichment was -1.21 log2 (difference from the parental peptide).

The variants in a further experiment derive from B2.
With chain 1 A9Y, the enrichment was -4.23 log2 (difference from the parental peptide).

Turning to chain 1 A9V, the enrichment was -3.26 log2 (difference from the parental peptide). For chain 1 A9G, the enrichment was -0.437 log2 (difference from the parental peptide). Same read-out and setting: next, chain 1 A9T: -0.868 log2 (difference from the parental peptide); chain 1 A9C: -9.61 log2 (difference from the parental peptide). Still for that read-out and setting: next, chain 1 A9M: -1.3 log2 (difference from the parental peptide); chain 1 A9S: 0.31 log2 (difference from the parental peptide).

On to chain 1 A9Q, for which the enrichment was 0.272 log2 (difference from the parental peptide).

chain 1 A9K: the enrichment was -1.29 log2 (difference from the parental peptide). As to chain 1 L11K, the enrichment is 1.95 log2 (difference from the parental peptide). On the same count and under the same terms, the same measure for chain 1 L11A: 0.754 log2 (difference from the parental peptide). chain 1 L11D: the enrichment is -2.06 log2 (difference from the parental peptide). On the same count and under the same terms, next, chain 1 L11C: 1.32 log2 (difference from the parental peptide); chain 1 L11R: 1.57 log2 (difference from the parental peptide); chain 1 C13F: -0.473 log2 (difference from the parental peptide). On the same count and under the same terms, the same measure for chain 1 C13A: -2.32 log2 (difference from the parental peptide); for chain 1 C13G: -1.56 log2 (difference from the parental peptide); for chain 1 C13L: -1.06 log2 (difference from the parental peptide). Still for that read-out and setting: next, chain 1 C13Y: -0.338 log2 (difference from the parental peptide). Consider chain 1 C13I, for which the enrichment is -0.427 log2 (difference from the parental peptide). On the same count and under the same terms, the same measure for chain 1 C13E: -4.45 log2 (difference from the parental peptide); for chain 1 Y8M: -6.01 log2 (difference from the parental peptide); for chain 1 Y8V: -4.32 log2 (difference from the parental peptide).

Take chain 1 Y8I: the enrichment was -8.9 log2 (difference from the parental peptide).

As to chain 1 Y8T, the enrichment is -8 log2 (difference from the parental peptide).

In the case of chain 1 Y8R, the enrichment is -6.7 log2 (difference from the parental peptide). With chain 1 Y8L, the enrichment was -7.29 log2 (difference from the parental peptide).

As to chain 1 Y8C, the enrichment was -9.2 log2 (difference from the parental peptide). Still for that read-out and setting: next, chain 1 P10T: -7.38 log2 (difference from the parental peptide).

With chain 1 P10N, the enrichment is -7.54 log2 (difference from the parental peptide). Same read-out and setting: the same measure for chain 1 P10W: -8.37 log2 (difference from the parental peptide); for chain 1 P10S: -8.71 log2 (difference from the parental peptide); for chain 1 P10E: -7.42 log2 (difference from the parental peptide). The same measure, in the same setting: next, chain 1 Y14L: 0.559 log2 (difference from the parental peptide); chain 1 Y14N: 0.255 log2 (difference from the parental peptide). chain 1 Y14W: the enrichment was 0.518 log2 (difference from the parental peptide).

With chain 1 Y14H, the enrichment is 1.41 log2 (difference from the parental peptide).

In the case of chain 1 Y14P, the enrichment is -2.37 log2 (difference from the parental peptide). Same read-out and setting: the same measure for chain 1 Y14C: -2.25 log2 (difference from the parental peptide); for chain 1 Y14M: 1.03 log2 (difference from the parental peptide); for chain 1 Y14I: 1.29 log2 (difference from the parental peptide). The same measure, in the same setting: next, chain 1 Y14A: -0.507 log2 (difference from the parental peptide); chain 1 E1T: -1.11 log2 (difference from the parental peptide). In the case of chain 1 E1H, the enrichment is -1.32 log2 (difference from the parental peptide). Consider chain 1 E1S, for which the enrichment is -0.455 log2 (difference from the parental peptide).

As for chain 1 E1M, the enrichment is -0.394 log2 (difference from the parental peptide). As to chain 1 E1K, the enrichment is -2.59 log2 (difference from the parental peptide). On the same count and under the same terms, next, chain 1 E1F: -2.08 log2 (difference from the parental peptide). The same measure, in the same setting: next, chain 1 E1W: -2.25 log2 (difference from the parental peptide). Same read-out and setting: the same measure for chain 1 E1N: -0.349 log2 (difference from the parental peptide). With chain 1 E1I, the enrichment was -1.02 log2 (difference from the parental peptide).

For chain 1 T16P, the enrichment was 1.42 log2 (difference from the parental peptide).

Turning to chain 1 T16S, the enrichment is 1.37 log2 (difference from the parental peptide). The same measure, in the same setting: the same measure for chain 1 T16M: 0.502 log2 (difference from the parental peptide); for chain 1 T16E: 1.25 log2 (difference from the parental peptide); for chain 1 T16I: 0.743 log2 (difference from the parental peptide). Still for that read-out and setting: next, chain 1 T16L: 0.738 log2 (difference from the parental peptide); chain 1 T16A: 1.43 log2 (difference from the parental peptide); chain 1 T16H: 0.233 log2 (difference from the parental peptide). Consider chain 1 T16R, for which the enrichment was 0.603 log2 (difference from the parental peptide). The same measure, in the same setting: the same measure for chain 1 T16F: 0.115 log2 (difference from the parental peptide).

On to chain 1 T16Q, for which the enrichment was 1.96 log2 (difference from the parental peptide). Same read-out and setting: next, chain 1 D3R: -4.97 log2 (difference from the parental peptide). Take chain 1 D3S: the enrichment is -2.23 log2 (difference from the parental peptide). Same read-out and setting: the same measure for chain 1 D3K: -4.88 log2 (difference from the parental peptide); for chain 1 D3E: 0.904 log2 (difference from the parental peptide).

As to chain 1 D3T, the enrichment was -3.23 log2 (difference from the parental peptide). On the same count and under the same terms, the same measure for chain 1 D3H: -2.58 log2 (difference from the parental peptide); for chain 1 D4W: -3.2 log2 (difference from the parental peptide); for chain 1 D4Q: -1.83 log2 (difference from the parental peptide). The same measure, in the same setting: the same measure for chain 1 D4M: -3.9 log2 (difference from the parental peptide); for chain 1 D4I: -3.36 log2 (difference from the parental peptide).

With chain 1 D4Y, the enrichment is -2.68 log2 (difference from the parental peptide).

In the case of chain 1 T6R, the enrichment is -0.801 log2 (difference from the parental peptide).

With chain 1 T6F, the enrichment was -4.21 log2 (difference from the parental peptide). The same measure, in the same setting: next, chain 1 T6H: -0.816 log2 (difference from the parental peptide); chain 1 T6W: -0.802 log2 (difference from the parental peptide); chain 1 T6L: -2.32 log2 (difference from the parental peptide).

For the variant chain 1 T6K, the enrichment is -1.83 log2 (difference from the parental peptide). On the same count and under the same terms, the same measure for chain 1 T6E: 2.76 log2 (difference from the parental peptide); for chain 1 T6G: 2.04 log2 (difference from the parental peptide); for chain 1 T6D: 2.7 log2 (difference from the parental peptide). The same measure, in the same setting: next, chain 1 T6Y: -0.847 log2 (difference from the parental peptide).

For chain 1 E2K, the enrichment is -2.67 log2 (difference from the parental peptide). Same read-out and setting: the same measure for chain 1 E2N: -1.75 log2 (difference from the parental peptide); for chain 1 E2R: -3.19 log2 (difference from the parental peptide).

Turning to chain 1 E2W, the enrichment was -1.39 log2 (difference from the parental peptide).

Take chain 1 E2Q: the enrichment is -2.83 log2 (difference from the parental peptide). On the same count and under the same terms, the same measure for chain 1 T12L: 0.285 log2 (difference from the parental peptide); for chain 1 T12R: 0.0146 log2 (difference from the parental peptide).

With chain 1 T12C, the enrichment is -5.83 log2 (difference from the parental peptide). The same measure, in the same setting: the same measure for chain 1 T12E: -0.507 log2 (difference from the parental peptide); for chain 1 T12Q: 0.904 log2 (difference from the parental peptide). For the variant chain 1 T12S, the enrichment is 0.405 log2 (difference from the parental peptide). On the same count and under the same terms, next, chain 1 T12Y: -0.212 log2 (difference from the parental peptide); chain 1 T12K: -0.15 log2 (difference from the parental peptide); chain 1 T12W: -1.55 log2 (difference from the parental peptide). As for chain 1 T12N, the enrichment is 0.576 log2 (difference from the parental peptide). For the variant chain 1 A7Q, the enrichment is 0.712 log2 (difference from the parental peptide).

As for chain 1 A7H, the enrichment is -0.321 log2 (difference from the parental peptide). For the variant chain 1 A7G, the enrichment is 0.697 log2 (difference from the parental peptide). The same measure, in the same setting: the same measure for chain 1 A7L: 0.505 log2 (difference from the parental peptide); for chain 1 A7F: -0.605 log2 (difference from the parental peptide). On the same count and under the same terms, the same measure for chain 1 A7T: 0.325 log2 (difference from the parental peptide). As for chain 1 A7R, the enrichment is -0.287 log2 (difference from the parental peptide). The same measure, in the same setting: next, chain 1 A7C: -9.36 log2 (difference from the parental peptide); chain 1 A7N: 1.02 log2 (difference from the parental peptide). As for chain 1 A7Y, the enrichment was -0.0899 log2 (difference from the parental peptide). Same read-out and setting: next, chain 1 F15R: 1.7 log2 (difference from the parental peptide). Turning to chain 1 F15K, the enrichment is 2.15 log2 (difference from the parental peptide). With chain 1 F15G, the enrichment was 0.793 log2 (difference from the parental peptide).

In the case of chain 1 F15Q, the enrichment was 2.57 log2 (difference from the parental peptide). Still for that read-out and setting: next, chain 1 F15T: 2.65 log2 (difference from the parental peptide). Still for that read-out and setting: the same measure for chain 1 F15M: 2.61 log2 (difference from the parental peptide); for chain 1 F15E: 1.9 log2 (difference from the parental peptide).

Take chain 1 F15A: the enrichment is 2.51 log2 (difference from the parental peptide). Consider chain 1 F15D, for which the enrichment was 0.871 log2 (difference from the parental peptide).

Take chain 1 F15L: the enrichment was 1.43 log2 (difference from the parental peptide). On the same count and under the same terms, the same measure for chain 1 F15I: 1.54 log2 (difference from the parental peptide); for chain 1 Y5D: -3.76 log2 (difference from the parental peptide).

Take chain 1 Y5P: the enrichment was -6.25 log2 (difference from the parental peptide). The same measure, in the same setting: next, chain 1 Y5W: -0.0149 log2 (difference from the parental peptide); chain 1 Y5T: -4.38 log2 (difference from the parental peptide); chain 1 Y5E: -1.42 log2 (difference from the parental peptide). Same read-out and setting: the same measure for chain 1 Y5I: -2.45 log2 (difference from the parental peptide); for chain 1 Y5N: -4.9 log2 (difference from the parental peptide); for chain 1 Y5V: -3.14 log2 (difference from the parental peptide). Take chain 1 Y5F: the enrichment was -0.0383 log2 (difference from the parental peptide).
